PMC4832279, “Characterisation of Shigella Spa33 and Thermotoga FliM/N reveals a new model for C‐ring assembly in T3SS” (Molecular Microbiology, 2015)
Where a chain is given by its changes, count along the chain named. Names and notes keep the numbering of the source. Values joined by “and” are separate entries in the source; they are usually repeats but may differ in a detail not shown here. Equal entries are not always repeated.

What was measured:
[1] = biological target: Spa33-C (co-expressed from pRSFDuet-Spa33-C with Spa33-FL(CTD)) (Shigella flexneri) (UniProt P0A1K9); assay: native MS; purified proteins or co-expressed, co-purified complexes, buffer-exchanged in 200 mM ammonium acetate pH 7.5; non-denaturing conditions; Synapt HDMS
[2] = biological target: Spa33-FL(CTD) (construct comprising only SpoA1 and SpoA2 of Spa33-FL) (Shigella flexneri); assay: as above
[3] = biological target: Spa33-C (expressed alone from pET28b-Spa33-C, tag removed, 15N-labelled) (Shigella flexneri) (UniProt P0A1K9); assay: as above
[4] = biological target: Spa33-Cmbp (Spa33-C with a C-terminal maltose binding protein fusion) (Shigella flexneri) (UniProt P0A1K9); assay: as above
[5] = biological target: Spa33-FL expressed from pETDuet-Spa33ΔRBS (N-terminal His-tag) (Shigella flexneri) (UniProt P0A1K9); assay: as above
[6] = biological target: Spa33-Cstrep (Spa33-C with an eight residue C-terminal Strep-tag) (Shigella flexneri) (UniProt P0A1K9); assay: as above
[7] = biological target: Spa33-Ctrx (Spa33-C with a C-terminal thioredoxin fusion) (Shigella flexneri) (UniProt P0A1K9); assay: as above
[8] = biological target: Spa33-FL/C2 (1:2 complex of His-Spa33-FL and Spa33-C) (Shigella flexneri) (UniProt P0A1K9); assay: as above
[9] = biological target: Spa33-FL/C2(Y221R) (1:2 complex with Y221R in Spa33-FL and in both copies of Spa33-C) (Shigella flexneri) (UniProt P0A1K9); assay: as above
[10] = biological target: Spa33-FL/Cstrep2 (1:2 complex of Spa33-FL and Spa33-Cstrep) (Shigella flexneri) (UniProt P0A1K9); assay: as above
[11] = biological target: Spa33-FL/Ctrx2 (1:2 complex of Spa33-FL and Spa33-Ctrx) (Shigella flexneri) (UniProt P0A1K9); assay: as above
[12] = biological target: Thermotoga maritima FliM with an N-terminal His-tag (Thermotoga maritima) (UniProt Q9WZE6); assay: as above
Sequence of Thermotoga maritima FliM with an N-terminal His-tag (Thermotoga maritima) (Q9WZE6 whole entry): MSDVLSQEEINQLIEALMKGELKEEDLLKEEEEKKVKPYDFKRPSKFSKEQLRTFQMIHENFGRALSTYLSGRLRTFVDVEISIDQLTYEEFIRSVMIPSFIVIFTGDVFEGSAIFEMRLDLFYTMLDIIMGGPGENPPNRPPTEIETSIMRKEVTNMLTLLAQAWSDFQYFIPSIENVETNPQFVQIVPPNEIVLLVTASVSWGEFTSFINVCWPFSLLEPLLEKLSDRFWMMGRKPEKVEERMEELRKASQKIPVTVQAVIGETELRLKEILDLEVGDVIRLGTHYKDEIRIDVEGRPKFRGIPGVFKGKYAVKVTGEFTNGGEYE

[13] = biological target: Thermotoga maritima FliN (C-terminal 132 residues of FliY) (Thermotoga maritima); assay: as above
[14] = biological target: T1, Spa33-FL (full-length Spa33 with an N-terminal His-tag) (Shigella flexneri, UniProt P0A1K9 1-293); assay: as above; conditions: both partners purified
T1 construct: Spa33 (SctQ), Shigella flexneri, full length; 293 residues by the printed range 192-293 at the extreme C-terminus; also called SctQ; His-Spa33-FL; source: E. coli B834 (DE3), from pET28b-Spa33, purified with Spa33-C (Ni-NTA, SEC)
T1 sequence: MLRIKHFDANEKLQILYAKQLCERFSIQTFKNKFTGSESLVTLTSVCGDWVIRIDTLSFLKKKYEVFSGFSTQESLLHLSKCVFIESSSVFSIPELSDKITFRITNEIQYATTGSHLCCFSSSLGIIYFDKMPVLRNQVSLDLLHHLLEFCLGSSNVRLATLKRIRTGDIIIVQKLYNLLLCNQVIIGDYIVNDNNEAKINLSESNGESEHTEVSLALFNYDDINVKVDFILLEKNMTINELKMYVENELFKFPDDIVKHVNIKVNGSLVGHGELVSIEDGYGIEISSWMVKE

[15] = biological target: the molecule itself; assay: as above
[16] = biological target: T2, Spa33-FL(Y221R) with an N-terminal His-tag (Shigella flexneri, UniProt P0A1K9 1-293, Y221R); assay: as above; conditions: both partners purified
T2 construct: Spa33 (SctQ), Shigella flexneri, full length, Y221R in the SpoA2 domain; also called Spa33-FL of Spa33-FL/C2(Y221R); source: E. coli B834 (DE3), from pET28b-Spa33(Y221R), purified with Spa33-C(Y221R) (Ni-NTA, SEC)
T2 sequence: T1 sequence with Y221R

[17] = biological target: the molecule itself; assay: crystal structure; 2.3 Å; 10 mg/ml Spa33 208-293, 21°C, sitting drop, 10% isopropanol, 0.1 M Na HEPES pH 7.0, 10% PEG 4000

Spa33-C (co-expressed from pRSFDuet-Spa33-C with Spa33-FL(CTD)) (from UniProt P0A1K9 192-293) (domain or fragment)
stoichiometry N [1]: 2
stoichiometry N [2]: 2

Spa33-C (expressed alone from pET28b-Spa33-C, tag removed, 15N-labelled) (from UniProt P0A1K9 192-293) (domain or fragment)
stoichiometry N [3]: 2

Spa33-Cmbp (Spa33-C with a C-terminal maltose binding protein fusion) (from UniProt P0A1K9 192-293) (domain or fragment)
stoichiometry N [4]: 2
stoichiometry N [5]: 2

Spa33-Cstrep (Spa33-C with an eight residue C-terminal Strep-tag) (from UniProt P0A1K9 192-293) (domain or fragment)
stoichiometry N [6]: 2
stoichiometry N [5]: 2

Spa33-Ctrx (Spa33-C with a C-terminal thioredoxin fusion) (from UniProt P0A1K9 192-293) (domain or fragment)
stoichiometry N [7]: 2
stoichiometry N [5]: 2

Spa33-FL(CTD) (construct comprising only SpoA1 and SpoA2 of Spa33-FL) (domain or fragment)
stoichiometry N [2]: 2 and 3

Spa33-FL/C2 (1:2 complex of His-Spa33-FL and Spa33-C) (from UniProt P0A1K9 1-293; P0A1K9 192-293)
stoichiometry N [8]: 2 and 4 and 6

Spa33-FL/C2(Y221R) (1:2 complex with Y221R in Spa33-FL and in both copies of Spa33-C) (from UniProt P0A1K9 1-293; P0A1K9 192-293)
stoichiometry N [9]: 2

Spa33-FL/Cstrep2 (1:2 complex of Spa33-FL and Spa33-Cstrep) (from UniProt P0A1K9 1-293; P0A1K9 192-293)
stoichiometry N [10]: 2 and 4

Spa33-FL/Ctrx2 (1:2 complex of Spa33-FL and Spa33-Ctrx) (from UniProt P0A1K9 1-293; P0A1K9 192-293)
stoichiometry N [11]: 2

Thermotoga maritima FliN (C-terminal 132 residues of FliY) (domain or fragment)
stoichiometry N [12]: 3
stoichiometry N [13]: 2

Thermotoga maritima FliY, full length (natural protein)
stoichiometry N [12]: 1

B1: Spa33-C (alternative translation product of spa33, residues 192-293) (domain or fragment)
chain: MNDNNEAKINLSESNGESEHTEVSLALFNYDDINVKVDFILLEKNMTINELKMYVENELFKFPDDIVKHVNIKVNGSLVGHGELVSIEDGYGIEISSWMVKE
modifications: formylmethionine at the N-terminus (expected from the measured mass)
notes: Spa33 (SctQ), Shigella flexneri, residues 192-293; translated from an internal GTG start codon; Forms a homodimer (Spa33-C2) in the native mass spectrum; also called short variant of Spa33; source: E. coli B834 (DE3), made from the internal start site of pET28b-Spa33, co-purified with His-Spa33-FL (Ni-NTA, SEC)
stoichiometry N [14]: 2
stoichiometry N [15]: 2

B2: Spa33-C(Y221R) (domain or fragment)
chain: B1 chain with Y30R
modifications: formylmethionine at the N-terminus (as told for wild-type Spa33-C)
notes: Spa33 (SctQ), Shigella flexneri, residues 192-293 (Spa33-C), Y221R; also called Spa33-C of Spa33-FL/C2(Y221R)
stoichiometry N [16]: 2

B3: Spa33 208-293 (C-terminal 86 residues of Spa33) (domain or fragment)
chain: ESEHTEVSLALFNYDDINVKVDFILLEKNMTINELKMYVENELFKFPDDIVKHVNIKVNGSLVGHGELVSIEDGYGIEISSWMVKE
notes: Spa33 (SctQ), Shigella flexneri, residues 208-293; Two copies of the dimer in the asymmetric unit; also called SpoA2 domain of Spa33; source: E. coli B834 (DE3), purified (Ni-NTA, carboxypeptidase A, SEC); not shown: His tag, C-terminal, cleaved
binding result [17]: binds
